Assay results reported in patent publication US20050148532A1.

Biological target: histidine tagged p85 with serine 83 mutated to alanine (p85^S83A) (UniProt P27986)
Test: cell-based or functional assay

Sequence of HA-14-3-3 zeta (hemagglutinin-tagged 14-3-3 zeta) (P63103 whole entry): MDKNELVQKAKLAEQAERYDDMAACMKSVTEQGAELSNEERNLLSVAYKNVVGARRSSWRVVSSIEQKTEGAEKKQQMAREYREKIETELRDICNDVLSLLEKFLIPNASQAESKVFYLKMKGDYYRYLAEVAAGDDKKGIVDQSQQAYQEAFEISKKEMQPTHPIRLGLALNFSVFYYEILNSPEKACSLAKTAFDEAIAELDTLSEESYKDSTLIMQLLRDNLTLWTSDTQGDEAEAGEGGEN

decrease in activation of PI3K (production of PIP3 in PY20 immunoprecipitates): 35%
Substance: HA-14-3-3 zeta (hemagglutinin-tagged 14-3-3 zeta) (from UniProt P63103 1-245)
